Data from patent publication US20060257938A1, “Method of screening for drugs that block ligand binding to a lipid binding protein” (priority 2005, published 2006).

B1: 72T 74S (protein, listed as Rattus norvegicus)
chain: AFDGTWKVDRNENYEKFMEKMGINVVKRKLGAHDNLKLTITQEGNKFTVKESSNFRNIDVVFELGVDFAYSTASGTELTGTWTMEGNKLVGKFKRVDNGKELIAVREISGNELIQTYTYEGVEAKRIFKKE
modifications: PEPTIDE (1)...(131) wild-type rat intestinal fatty acid binding protein
B2: 14L 18L 73W 117S 72A (protein, listed as Rattus norvegicus)
chain: AFDGTWKVDRNENLEKFLEKMGINVVKRKLGAHDNLKLTITQEGNKFTVKESSNFRNIDVVFELGVDFAYSAWDGTELTGTWTMEGNKLVGKFKRVDNGKELIAVREISGNELIQTSTYEGVEAKRIFKKE
modifications: PEPTIDE (1)...(131) wild-type rat intestinal fatty acid binding protein
B3: 18I 55G 73M 72A (protein, listed as Rattus norvegicus)
chain: AFDGTWKVDRNENYEKFIEKMGINVVKRKLGAHDNLKLTITQEGNKFTVKESSNGRNIDVVFELGVDFAYSAMDGTELTGTWTMEGNKLVGKFKRVDNGKELIAVREISGNELIQTYTYEGVEAKRIFKKE
modifications: PEPTIDE (1)...(131) wild-type rat intestinal fatty acid binding protein
B4: 18V 31Y 55I 73G 72A (protein, listed as Rattus norvegicus)
chain: AFDGTWKVDRNENYEKFVEKMGINVVKRKLYAHDNLKLTITQEGNKFTVKESSNIRNIDVVFELGVDFAYSAGDGTELTGTWTMEGNKLVGKFKRVDNGKELIAVREISGNELIQTYTYEGVEAKRIFKKE
modifications: PEPTIDE (1)...(131) wild-type rat intestinal fatty acid binding protein
B5: 18I 31L 73G 72A (protein, listed as Rattus norvegicus)
chain: AFDGTWKVDRNENYEKFIEKMGINVVKRKLLAHDNLKLTITQEGNKFTVKESSNFRNIDVVFELGVDFAYSAGDGTELTGTWTMEGNKLVGKFKRVDNGKELIAVREISGNELIQTYTYEGVEAKRIFKKE
modifications: PEPTIDE (1)...(131) wild-type rat intestinal fatty acid binding protein
B6: 14Q 18S 73I 117W 72A (protein, listed as Rattus norvegicus)
chain: AFDGTWKVDRNENQEKFSEKMGINVVKRKLGAHDNLKLTITQEGNKFTVKESSNFRNIDVVFELGVDFAYSAIDGTELTGTWTMEGNKLVGKFKRVDNGKELIAVREISGNELIQTWTYEGVEAKRIFKKE
modifications: PEPTIDE (1)...(131) wild-type rat intestinal fatty acid binding protein
B7: 72A 74N (protein, listed as Rattus norvegicus)
chain: AFDGTWKVDRNENYEKFMEKMGINVVKRKLGAHDNLKLTITQEGNKFTVKESSNFRNIDVVFELGVDFAYSAANGTELTGTWTMEGNKLVGKFKRVDNGKELIAVREISGNELIQTYTYEGVEAKRIFKKE
modifications: PEPTIDE (1)...(131) wild-type rat intestinal fatty acid binding protein
B8: 18V 31V 73I 72A (protein, listed as Rattus norvegicus)
chain: AFDGTWKVDRNENYEKFVEKMGINVVKRKLVAHDNLKLTITQEGNKFTVKESSNFRNIDVVFELGVDFAYSAIDGTELTGTWTMEGNKLVGKFKRVDNGKELIAVREISGNELIQTYTYEGVEAKRIFKKE
modifications: PEPTIDE (1)...(131) wild-type rat intestinal fatty acid binding protein
B9: 14L 18L 31S 73W 117V 72A (protein, listed as Rattus norvegicus)
chain: AFDGTWKVDRNENLEKFLEKMGINVVKRKLSAHDNLKLTITQEGNKFTVKESSNFRNIDVVFELGVDFAYSAWDGTELTGTWTMEGNKLVGKFKRVDNGKELIAVREISGNELIQTVTYEGVEAKRIFKKE
modifications: PEPTIDE (1)...(131) wild-type rat intestinal fatty acid binding protein
B10: 38W 106H 117A 72A (protein, listed as Rattus norvegicus)
chain: AFDGTWKVDRNENYEKFMEKMGINVVKRKLGAHDNLKWTITQEGNKFTVKESSNFRNIDVVFELGVDFAYSAADGTELTGTWTMEGNKLVGKFKRVDNGKELIAVHEISGNELIQTATYEGVEAKRIFKKE
modifications: PEPTIDE (1)...(131) wild-type rat intestinal fatty acid binding protein
B11: 14L 31W 117V 72A (protein, listed as Rattus norvegicus)
chain: AFDGTWKVDRNENLEKFMEKMGINVVKRKLWAHDNLKLTITQEGNKFTVKESSNFRNIDVVFELGVDFAYSAADGTELTGTWTMEGNKLVGKFKRVDNGKELIAVREISGNELIQTVTYEGVEAKRIFKKE
modifications: PEPTIDE (1)...(131) wild-type rat intestinal fatty acid binding protein
B12: 38H 62W 106V 117A 72A (protein, listed as Rattus norvegicus)
chain: AFDGTWKVDRNENYEKFMEKMGINVVKRKLGAHDNLKHTITQEGNKFTVKESSNFRNIDVVWELGVDFAYSAADGTELTGTWTMEGNKLVGKFKRVDNGKELIAVVEISGNELIQTATYEGVEAKRIFKKE
modifications: PEPTIDE (1)...(131) wild-type rat intestinal fatty acid binding protein
B13: 14R 18L 73L 117D 72A (protein, listed as Rattus norvegicus)
chain: AFDGTWKVDRNENREKFLEKMGINVVKRKLGAHDNLKLTITQEGNKFTVKESSNFRNIDVVFELGVDFAYSALDGTELTGTWTMEGNKLVGKFKRVDNGKELIAVREISGNELIQTDTYEGVEAKRIFKKE
modifications: PEPTIDE (1)...(131) wild-type rat intestinal fatty acid binding protein
B14: 18I 31L 72A (protein, listed as Rattus norvegicus)
chain: AFDGTWKVDRNENYEKFIEKMGINVVKRKLLAHDNLKLTITQEGNKFTVKESSNFRNIDVVFELGVDFAYSAADGTELTGTWTMEGNKLVGKFKRVDNGKELIAVREISGNELIQTYTYEGVEAKRIFKKE
modifications: PEPTIDE (1)...(131) wild-type rat intestinal fatty acid binding protein
B15: 14R 18L 31S 73F 117E 72A (protein, listed as Rattus norvegicus)
chain: AFDGTWKVDRNENREKFLEKMGINVVKRKLSAHDNLKLTITQEGNKFTVKESSNFRNIDVVFELGVDFAYSAFDGTELTGTWTMEGNKLVGKFKRVDNGKELIAVREISGNELIQTETYEGVEAKRIFKKE
modifications: PEPTIDE (1)...(131) wild-type rat intestinal fatty acid binding protein

Tests used:
Assay type in all cases: binding
[1] = Probe fluorescence ratio response to arachidonic acid relative to ADIFAB2; conditions: arachidonic acid; response relative to ADIFAB2
Method in brief: (§1)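 Fluorescently labeled rat intestinal FABP variants were read at two emission wavelengths, near the unbound maximum (about 420 to 480 nm) and the FFA-bound maximum (about 495 to 580 nm). R = Fλ1/Fλ2 after subtracting probe-free intensity; ΔR = R+agent − R0, normalized to ADIFAB2 (rI-FABP-L72A).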

[2] = Probe fluorescence ratio response to linolenic acid relative to ADIFAB2; conditions: response relative to ADIFAB2
Method in brief: as §1

[3] = Probe fluorescence ratio response to linoleic acid relative to ADIFAB2; conditions: response relative to ADIFAB2
Method in brief: as §1

[4] = Probe fluorescence ratio response to oleic acid relative to ADIFAB2; conditions: response relative to ADIFAB2
Method in brief: as §1

[5] = Probe fluorescence ratio response to palmitic acid relative to ADIFAB2; conditions: response relative to ADIFAB2
Method in brief: as §1

[6] = Probe fluorescence ratio response to palmitoleic acid relative to ADIFAB2; conditions: response relative to ADIFAB2
Method in brief: as §1

[7] = Probe fluorescence ratio response to stearic acid relative to ADIFAB2; conditions: response relative to ADIFAB2
Method in brief: as §1

Molecule | DR/DR AA [1] | DR/DR LNA [2] | DR/DR LA [3] | DR/DR OA [4] | DR/DR PA [5] | DR/DR POA [6] | DR/DR SA [7]
B1 | 2.035 | 2.621 | 2.469 | 2.252 | 2.209 | 2.471 | 1.779
B2 | 1.010 | 1.499 | 1.385 | 0.374 | 0.259 | 0.750 | −0.005
B3 | 0.895 | 1.284 | 1.127 | 0.574 | 1.137 | 1.201 | 0.360
B4 | 1.007 | 1.228 | 1.220 | 0.994 | 0.780 | 1.106 | −0.094
B5 | 0.981 | 1.525 | 1.146 | 0.595 | 1.137 | 1.377 | 0.267
B6 | 0.878 | 0.894 | 0.784 | 0.809 | 0.559 | 0.834 | −0.044
B7 | 1.614 | 1.701 | 1.681 | 1.629 | 1.308 | 1.536 | 1.299
B8 | 0.863 | 1.531 | 1.151 | 0.670 | 1.302 | 1.334 | 0.311
B9 | 1.458 | 1.631 | 1.569 | 1.208 | 0.692 | 1.356 | 0.329
B10 | 1.326 | 1.397 | 1.248 | 0.831 | 0.426 | 1.098 | 0.071
B11 | 1.972 | 1.894 | 2.027 | 1.580 | 1.304 | 1.768 | 0.742
B12 | 2.007 | 1.796 | 1.337 | 1.239 | 1.002 | 1.145 | 0.947
B13 | 1.029 | 1.790 | 1.766 | 0.847 | 0.294 | 0.801 | 0.213
B14 | 1.054 | 1.384 | 1.198 | 0.719 | 1.182 | 1.187 | 0.305
B15 | 1.241 | 2.296 | 1.947 | 1.146 | 0.693 | 1.290 | 0.378
